From article PMC4309443
Each block holds one molecule with its values, some of them ahead of it.

Columns and labels:
[1] = molecular target: truncated Importin α1 (residues 71–497) (UniProt P52292); test: ITC; MicroCal iTC200, 25 °C; 1.5 mM TAF8 peptide injected into 39 μM Importin α1; 25 mM Tris-HCl pH 8.0, 150 mM NaCl, 1 mM β-mercaptoethanol; one-site model; duplicates
[2] = molecular target: recombinant human TAF2, full length (human); test: AUC; sedimentation velocity, absorbance at 280 nm, 42,000 r.p.m., 10 °C; c(s) analysis with Sedfit
[3] = molecular target: recombinant human TAF2, full length (human); test: native MS; TAF2–8–10 in 500 mM ammonium acetate pH 7.5, Q-ToF II, collision-induced dissociation
[4] = molecular target: recombinant human TAF8, full length (human) (UniProt Q7Z7C8); test: AUC; sedimentation velocity, absorbance at 280 nm, 42,000 r.p.m., 10 °C; c(s) analysis with Sedfit
[5] = molecular target: recombinant human TAF2, full length (human); test: SPR; BIACORE 3000, 25 °C; TAF2 amine-coupled to CM5 (2,500 RU); MBP–TAF8 analytes at 500 nM; 25 mM HEPES-NaOH pH 7.0, 300 mM NaCl, 0.01% NP-40

- Kd [1]: 10.4 µM
- dH [1]: -18.5 kcal/mol
- stoichiometry N [1]: 1
Molecule: TAF8 NLS peptide used for ITC (printed as residues 288–310)

- stoichiometry N [2]: 1
- stoichiometry N [3]: 1
Molecule: TAF8–10 complex (full-length TAF8 and TAF10) (from UniProt Q7Z7C8-1 1-310)

- stoichiometry N [4]: 1
Molecule: recombinant human TAF10, full length (natural protein)

The next lines start with the molecule.

B1: MBP–TAF8 (residues 105–260) (domain or fragment)
chain: DTLPAYAKRSQRMVITAPPVTNQPVTPKALTAGQNRPHPPHIPSHFPEFPDPHTYIKTPTYREPVSDYQVLREKAASQRRDVERALTRFMAKTGETQSLFKDDVSTFPLIAARPFTIPYLTALLPSELEMQQMEETDSSEQDEQTDTENLALHISM
- maximal association level [5]: < 10 RU

B2: MBP–TAF8 (residues 200–310) (domain or fragment)
chain: TQSLFKDDVSTFPLIAARPFTIPYLTALLPSELEMQQMEETDSSEQDEQTDTENLALHISMEDSGAEKENTSVLQQNPSLSGSRNGEENIIDNPYLRPVKKPKIRRKKSLS
- maximal association level [5]: < 10 RU

B3: MBP–TAF8 (residues 105–310) (domain or fragment)
chain: DTLPAYAKRSQRMVITAPPVTNQPVTPKALTAGQNRPHPPHIPSHFPEFPDPHTYIKTPTYREPVSDYQVLREKAASQRRDVERALTRFMAKTGETQSLFKDDVSTFPLIAARPFTIPYLTALLPSELEMQQMEETDSSEQDEQTDTENLALHISMEDSGAEKENTSVLQQNPSLSGSRNGEENIIDNPYLRPVKKPKIRRKKSLS
- maximal association level [5]: 85 RU

B4: MBP–TAF8 (residues 141–310) (domain or fragment)
chain: PHPPHIPSHFPEFPDPHTYIKTPTYREPVSDYQVLREKAASQRRDVERALTRFMAKTGETQSLFKDDVSTFPLIAARPFTIPYLTALLPSELEMQQMEETDSSEQDEQTDTENLALHISMEDSGAEKENTSVLQQNPSLSGSRNGEENIIDNPYLRPVKKPKIRRKKSLS
- maximal association level [5]: 40 RU
